The values that follow come from patent US20120308570A1, “METHODS FOR TREATING DISEASES” (priority 2009, published 2012).

To fix the notation:
T1: SSB-2ΔSB (recombinant murine SSB-2 SPRY domain, residues 12-224) (mouse, UniProt O88838 12-224)
T1 construct: 226 residues in total; expressed as GST fusion in E. coli, GST cleaved off with thrombin; 15N-labelled for NMR; coupled to NHS-Sepharose for pull-downs; also called SPSB2
T1 sequence: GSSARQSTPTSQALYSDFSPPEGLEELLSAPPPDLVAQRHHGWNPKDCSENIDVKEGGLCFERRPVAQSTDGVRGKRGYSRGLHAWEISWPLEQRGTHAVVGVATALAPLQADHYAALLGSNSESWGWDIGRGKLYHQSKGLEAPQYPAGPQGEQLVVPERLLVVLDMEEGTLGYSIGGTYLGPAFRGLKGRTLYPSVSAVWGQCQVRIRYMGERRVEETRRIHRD

B1: iNOS N-terminal peptide II, Ac-KEAKDINNNVKKT-NH2 (peptide)
peptide: Ac-KEAKDINNNVKKT-NH2
B2: iNOS N-terminal peptide V, Ac-KEEKAINNNVKKT-NH2 (peptide)
peptide: Ac-KEEKAINNNVKKT-NH2
B3: iNOS N-terminal peptide III, Ac-KEEADINNNVKKT-NH2 (peptide)
peptide: Ac-KEEADINNNVKKT-NH2
B4: iNOS N-terminal peptide XIV, Ac-KEEKDINNNAKAT-NH2 (peptide)
peptide: Ac-KEEKDINNNAKAT-NH2
B5: iNOS N-terminal peptide IX, Ac-KEEKDINANVKKT-NH2 (peptide)
peptide: Ac-KEEKDINANVKKT-NH2
B6: iNOS N-terminal peptide VII, Ac-KEEKDIANNVKKT-NH2 (peptide)
peptide: Ac-KEEKDIANNVKKT-NH2
B7: iNOS N-terminal peptide VI, Ac-KEEKDANNNVKKT-NH2 (peptide)
peptide: Ac-KEEKDANNNVKKT-NH2
B8: iNOS N-terminal peptide IV, Ac-KEAADINNNVKKT-NH2 (peptide)
peptide: Ac-KEAADINNNVKKT-NH2
B9: iNOS N-terminal peptide VIII, Ac-KEEKDIQNNVKKT-NH2 (peptide)
peptide: Ac-KEEKDIQNNVKKT-NH2

Broadly, the Kd is the free concentration of one partner at which half of the binding sites on the other are occupied at equilibrium, for simple one-to-one binding.

The experiment deals with T1, SSB-2ΔSB (recombinant murine SSB-2 SPRY …). In words: ITC, 25 C, peptide injected into SSB-2ΔSB. Here is the method:
FIG. 3. Typical ITC raw data and titration curves for SSB-2 and iNOS peptide interactions. Titration curves were fitted using the “One Set of Sites” model in MicroCal Origin.
Wild-type and mutant iNOS peptides (Table 2), corresponding to Lys19-Thr31 of mouse iNOS, were synthesized by GL Biochem (Shanghai) Ltd. These peptides were N-terminal acetylated and C-terminal amidated. All ITC measurements were carried out at 25° C. using a Microcal omega VP-ITC (Microcal Inc., Northampton, Mass.). SSB-2ΔSB was dialysed against buffer (100 mM TrisHCl, 150 mM NaCl, pH 8.0), and wild-type and mutant iNOS N-terminal peptides were prepared in the same buffer from 5 mM stocks. Solutions of 5 to 10 μM SSB-2ΔSB in the cell were titrated by injection of a total of 290 μL of 50-200 μM of iNOS peptides. Data analysis was performed using the evaluation software, MicroCal Origin version 5.0. All curves were fitted using the nonlinear least-squares fitter and the “One Set of Sites” model.
(In general: In ITC the heat of successive injections is recorded.)
On to B1, for which the Kd stood at 14 nM.
The same measure for B2: 21600 nM.
In the case of B3 it was 127 nM.
In the case of B4 it was 180 nM; in that of B5, 826 nM.
Turning to B6, the Kd amounted to 17200 nM.
Regarding B7, the Kd is 23.5 nM.
In the case of B8 it was 65.4 nM.
For the molecule B9, the Kd was found to be 40500 nM.
